The record followed here is patent publication US20160009800A1.

The target of assay [1] is human insulin receptor (human) (UniProt P06213). In words: FACS, serum-starved IM-9 cells; insulin state of the control not stated.
Assay [2] shares this target. In words: FACS, serum-starved IM-9 cells, no insulin.
Assay [3] addresses human insulin receptor complexed with human insulin (human) (UniProt P06213). In words: FACS, serum-starved IM-9 cells pre-exposed to human insulin.
Assay [4] has the same target. In words: KinExA, affinity with insulin against affinity without insulin.
In assay [5] the target is human insulin receptor (human) (UniProt P06213). In words: KinExA antibody depletion by hINSR8-CHOK1 cells, without insulin.
For assay [6], the target named is human insulin receptor complexed with human insulin (human) (UniProt P06213). In words: KinExA antibody depletion by hINSR8-CHOK1 cells, with 175 nM insulin.

In assay [1], Neg Control gave an MFI of 3.83.

With 83-7 (antibody), the MFI in assay [2] amounted to 18.4; in assay [3], 34.9. Besides, the Fold Improvement with Insulin in assay [4] is 3 fold. Besides, the Kd in assay [5] was 0.48 nM; in assay [6], 0.16 nM.
